This series is described as follows: yeast display, Sf9 membrane polyspecificity reagent, FACS + sequencing; frameworks hold sequencing errors. The essentials: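 Using colony PCR, genes from sorted yeast display clones were amplified, then sequenced on MiSeq at 2 × 250 and filtered by CDR length. The clones had been stained with 10% biotinylated, detergent-solubilized Sf9 membrane reagent for 1 hour at 4 °C and sorted by FACS into low and high (top ~1%) gates on anti-HA and streptavidin fluorescence. Polyreactivity labels come from the gate of origin.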
With “QVQLVESGGGLVQAGGSLRLSCAASGSTFGYYAMGWYRQAPGKERELVAVITRGGSTYYADSVKGRFTISRDNAKNTVYLQMNSLKQEDTAVYYCNARVLAVHYGYWGQGTQVTVSS”, the “polyreactivity (PSR sort gate)” value is reported as “high polyreactivity”.

For “QVQLVESGGGLVQAGGSLRLSCAASGSTFGYYDMGWYRQAPGKERELVATITKSGGTTRYADSVKGRFTISRDNAKNTVYLQMNSLKPEDTAVYYCAADGTWRLLDDYWGQGTQVTVSS”, the “polyreactivity (PSR sort gate)” value is on record as “low polyreactivity”.

As to “QVQLVESGGGLVQAGGSLRLSCAASGSTFGYYGMGWYRQAPGKERELVAAISASGGRTYYADSVKGRFTISRDNAKITVYLQMNSLKPEDTAVYYCAATVYAWRSTYGYWGQGTQVTVSS”, the “polyreactivity (PSR sort gate)” value was “high polyreactivity”.

Turning to “QVQLVESGGGLVQAGGSLRLSCAASGSTFGYYTMGWSRQAPGKERELVAAITWSGGSTYYADSVKGRFTISRHNAKNTVYLQMNSLKAEDTAVYYCAADDYWTPFGYWGQGTQVTVSS”, the “polyreactivity (PSR sort gate)” value is “low polyreactivity”.

For the sequence “QVQLVESGGGLVQAGGSLRLSCAASGSTFGYYTMGWYRQAPGKERELVAAISRSGGRTYYADSVKGRFTISRDNAKKAVYLQMNSLKPEVTAVFYCNADGTRYAGDDYWGQGTQVTVSS”, the “polyreactivity (PSR sort gate)” value is listed as “high polyreactivity”.

In the case of “QVQLVESGGGLVQAGGSLRLSCAASGSTFHGYDMGWYRQAPGKERELVAAITSSGDDTYYADSEKGRFTISLDNAKNTVYLQMNSLKPEDTAVYYCAAEYTEGYTHDYWGQGTQVTVSS”, the “polyreactivity (PSR sort gate)” value was “low polyreactivity”.

Consider “QVQLVESGGGLVQAGGSLRLSCAASGSTFHLYAMGWSRQAPGKERELVAVITSGDSTSYADSVKGRFTISRDNAKNTVYLQMNSLKPEDTAVYYCAADSYSGYNYWGQGTQVTVSS”, for which the “polyreactivity (PSR sort gate)” value is recorded as “low polyreactivity”.

For the sequence “QVQLVESGGGLVQAGGSLRLSCAASGSTFHRYAKGSYRQAPGKERELVARIIGSGGSTYYADSVKGRFTISRDNAKNTVYLQMNSLKPEDTAVYYCAADGLYYTYGYDYWGQGTQVTVSS”, the “polyreactivity (PSR sort gate)” value was “low polyreactivity”.

In the case of “QVQLVESGGGLVQAGGSLRLSCAASGSTFHRYALGWYRQAPGKERELVATITSRGGITYYADSVKGRFTISRDNAKNTVYLQMNSLKPEDTAVYYCYRYDYWGQGTQVTVSS”, the “polyreactivity (PSR sort gate)” value was “low polyreactivity”.

Turning to “QVQLVESGGGLVQAGGSLRLSCAASGSTFHWYVMGWYRQAPGKERELVAAITWSGGSTYYADSVKGRLTISRDNAKNTVYLQMNSLKPEDTAVYYCNAVFWIWNAGYDYWGQGTQVTVSS”, the “polyreactivity (PSR sort gate)” value is recorded as “low polyreactivity”.

As to “QVQLVESGGGLVQAGGSLRLSCAASGSTFHYYAMGWYRQAPGKERELVAAISQSGSGTYYADSVKGRFTISRDNAKNTVYLLMNSLKPEDTAVYYCAKDITGLSRYRRDYWGQGTQVTVSS”, the “polyreactivity (PSR sort gate)” value is “low polyreactivity”.

Take “QVQLVESGGGLVQAGGSLRLSCAASGSTFHYYAMGWYRQAPGKERELVAAISSGGRTNYADSVKGRFTISRDNAKNTVYLQMNSLKPEDTAVYYCAARWSYTKGEFDYWGQGTQGTVSS”: the “polyreactivity (PSR sort gate)” value is “high polyreactivity”.

Take “QVQLVESGGGLVQAGGSLRLSCAASGSTFHYYVMGWYRQAPGKERELDAAIRRSGGTTYYADSVKGRFTISRDNAKNTVYLQMNSLKPEDTAVYYCAAYFFHYHFYQAAYDYWGQGTQVTVSS”: the “polyreactivity (PSR sort gate)” value was “low polyreactivity”.

Consider “QVQLVESGGGLVQAGGSLRLSCAASGSTFIANAMGWYRQAPGKEREFVATISRRGGSTYYADSVKGRFTISRDNAKNTVYLQMNSLKPEDTAVYYCAARPLTYIRFRYYYWGQGTQVSVSS”, for which the “polyreactivity (PSR sort gate)” value was “high polyreactivity”.

As for “QVQLVESGGGLVQAGGSLRLSCAASGSTFIAYTMGWYRQAPGKERELVAAISGTGGTTYADSVKGRFTISRDNAKNTVYLQMNSLKPEDTAVYYCAAQYRYTYWGQGTQVTVSS”, the “polyreactivity (PSR sort gate)” value is on record as “low polyreactivity”.

Regarding “QVQLVESGGGLVQAGGSLRLSCAASGSTFIDYAMGWYRQAPGKERELVAAITWSGSSTYYADSVKGRFTISRDNAKNTVYLQMNSLKPEDTAVYYCAARYWYQSYHTYGYYSWGQGTQVTVSS”, the “polyreactivity (PSR sort gate)” value is reported as “low polyreactivity”.

“QVQLVESGGGLVQAGGSLRLSCAASGSTFIDYAMGWYRQAPGKERELVAGGSTNYADSVKGRFTISRDNAKNTVYLQMNSLKPEYTAVYYCNADALLYPYWGFDYWGQGTQVTVSS”: the “polyreactivity (PSR sort gate)” value was “low polyreactivity”.

As to “QVQLVESGGGLVQAGGSLRLSCAASGSTFIDYDMGWYRQAPGKERELVAAITSSGSTYYADSVKGRFTISRDNAKNTVYLQMNSLKPEDTAVYYCNARVGPELHDYWGQGTQVTVSS”, the “polyreactivity (PSR sort gate)” value is recorded as “low polyreactivity”.

With “QVQLVESGGGLVQAGGSLRLSCAASGSTFIDYGMGWYRQAPGKERELVAAIDLDSGDTYYADSVKGRFTISRENAKNTVYLQMNSLKPEDTAVYYCAAQYWYRYNYWGQGTQVTVSS”, the “polyreactivity (PSR sort gate)” value was “low polyreactivity”.

As to “QVQLVESGGGLVQAGGSLRLSCAASGSTFIENAMGWYRQAPGKERELVAAINRGGTTYYADSVKGRFTISRDNAKNTVYLQMNSLKPEDTAVYYCAADDPSYANRFIHDYWGQGTHVTVSS”, the “polyreactivity (PSR sort gate)” value was “low polyreactivity”.

“QVQLVESGGGLVQAGGSLRLSCAASGSTFIGNAMGWYRQAPGKERELVAAISRTGGSTYADSVKGRFTISRDNAKNTVYLQMNSLKPEDTAVYYCAAKYYYIYYYWGQGTQVTVSS”: the “polyreactivity (PSR sort gate)” value was “high polyreactivity”.

With “QVQLVESGGGLVQAGGSLRLSCAASGSTFIGNAMGWYRQAPGKERELVAAITRSGGSTFYADSVKGRFTISRDNAKNTVYLQMNSLKPEDTAVYYCAARNGAYPALTAGDYWGQGTQVTVSS”, the “polyreactivity (PSR sort gate)” value is reported as “high polyreactivity”.

As to “QVQLVESGGGLVQAGGSLRLSCAASGSTFIGNAMGWYRQAPGKERELVAAITSSGGSTYYADSVKGRFTISRDNAKNTVYLQLNSLKPEDTAVYYCAAKTWARGHYGYQARSNYWGQGTQVTVSS”, the “polyreactivity (PSR sort gate)” value was “high polyreactivity”.

On to “QVQLVESGGGLVQAGGSLRLSCAASGSTFIGYVMGWYRQAPGKERELVAAISWTGSNKYYADSVKGRFTISRDNAKNTVYLQMNSLKPEDTAVYYCNARSFAPYKNYDYWGQGTQVTVSS”, for which the “polyreactivity (PSR sort gate)” value is reported as “low polyreactivity”.

For the sequence “QVQLVESGGGLVQAGGSLRLSCAASGSTFINYARGWYSQAPGKERELVAVITSDDGSTYDADSVKGRFTISRDNAKNTVYLQMNSLKPEDTAVYYCAAYYYDQRYRPGPWYDYWGQGTQVTVSS”, the “polyreactivity (PSR sort gate)” value was “low polyreactivity”.

On to “QVQLVESGGGLVQAGGSLRLSCAASGSTFIPNTMGWYRQAPGKERELVAAISRRGGSTNYADSVKGRFTISRDNAKNTVYLQMNSLKPEDTAVYYCAAVSPRRYRYDYWGQGTQVTVSS”, for which the “polyreactivity (PSR sort gate)” value is “high polyreactivity”.

Regarding “QVQLVESGGGLVQAGGSLRLSCAASGSTFIPYAMGWYRQAPGKERELVAAIRGGDGSTYYADSVKGRFTISRDNAKNTVYLQMNSLKPEDTAVYYFAADTVITAYFDRFWRYNYWGQGTQVTVSS”, the “polyreactivity (PSR sort gate)” value is recorded as “low polyreactivity”.

On to “QVQLVESGGGLVQAGGSLRLSCAASGSTFIPYAMGWYRQAPGKERELVAAISFNDGITYYADSVKGRFKISRDNAKNTVYLQMNSLKPEDTAVYYCAAEDWSDYPYGMDYWGQGTQVTVSS”, for which the “polyreactivity (PSR sort gate)” value is reported as “high polyreactivity”.

For the sequence “QVQLVESGGGLVQAGGSLRLSCAASGSTFIRNAMGWYRPAPGKERELVAAISSSGGRTYYADSVKGRFTISRDNAKNTVYLQMNSLKPEDTAVYYCAARNARYVHTMEYWGQGTQVTVSS”, the “polyreactivity (PSR sort gate)” value is recorded as “high polyreactivity”.

Turning to “QVQLVESGGGLVQAGGSLRLSCAASGSTFISYAMGWYRQAPGKERELVAAIRYRDGRTYYADSVKGRFTNSRDNAKNTVYLQMISLKPEDTAVYYCAAKYRGLYSGMYYWGQGTQVTVSS”, the “polyreactivity (PSR sort gate)” value is “high polyreactivity”.

For the origin of these results see the nanobody polyreactivity screen of Harvey et al. (2022).
